From the nanobody polyreactivity screen of Harvey et al. (2022)

Test: yeast display, Sf9 membrane polyspecificity reagent, FACS + sequencing; frameworks hold sequencing errors
In short: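 Sorting gates, low and high (top ~1%), were placed on anti-HA fluorescence to track expression and on streptavidin fluorescence to track reagent binding. A clone's polyreactivity label is taken from the gate it came out of. The reagent was 10% biotinylated, detergent-solubilized Sf9 membrane, applied for 1 hour at 4 °C to galactose-induced yeast display cells.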

Row | Sequence | polyreactivity (PSR sort gate)
1 | QVQLVESGGGLVQAGGSLRLSCAASGIIFYPNAMGWYRQAPGKERELVAAITSDGSTYYADSVKGRFTISRDNAMNTVYLQMNSLKPDDTAVYYCAAWDDYGYDYWGQGTQVTVSS | low polyreactivity
2 | QVQLVESGGGLVQAGGSLRLSCAASGSTFSFNDMGWYRQAPGKERELVADISWSGDTTYADSVKGRFTISRDNAKNTVYLQMNSLKPEDTAVYYCNAEGFSIAFYANWVVQWEFDFWGQGTQVSVSS | high polyreactivity
3 | QVQLVDSGGGLVQAGGSLRLSCAASGRTFGRYTMGWYRQAPGKERELVAAITYSGGSTYYADSVKGRFTISRDNAKNTVYLQMNSLKPEDTAVYYCAAEWVYDWYRYGYWGQGTQVTVSS | low polyreactivity
4 | QVQLVESGGGLVQAGGSLRLSCAASGITFTWYAMGWYRQAPGKERELVAAISGGGSTYYVDSVKGRFTISRDNAKNTVYLQMNSLKPEDTAVYYCAARYSWTRRTMYYWGQGTQVTVSS | high polyreactivity
5 | QVQLVESGGGLVQAGGSLRLSCAASGITFAWNAMGWYRPAPGKEREFVAAINWSGGSTYYADSVKGRFTISRDNAKNTVYLQMNSLKPEDTAVYYCAAYKRSYYPRTLYDYWGQGTQVTVSS | high polyreactivity
6 | QVQLVESGGGLVQAGGSLRLSCSASGNIIRKYAMGWYRQAPGKEREFVAAISSSGGRTYYADSVKGRFTISRDNAKNTVYLQMNSLKPEDTAVYYCAKDPYGRLQPRPRFGYWGQGTQVTVSS | high polyreactivity
7 | QVQLVESGGGLVQAGGSLRLSCAASGFTFARYTMGWSRQAPGKEREFVAAISWSGGRTYYADSVKGRFTISRDNAKNTVYLQMNSLKPEDTAVYYCAAEYWGVYRGFVSSFDYWGQGTQVTVSS | high polyreactivity
8 | QDQHGDSGGGLVQAGGSLRLSCSASGFTITYNTMGWYRQAPGKERELVATITAGDGSTYYADSVKGRFTISRDNAKNTVYFQMNSLKPEDTAVYYCAADAYYYYAGGHYYWGQGTQVTVSS | low polyreactivity
9 | QVQLVESGGGLVQAGGSLRLSCAASGPTLRSYAMGWYRQAPGKERELVAAITRASGARTFYADSVKGRFTISRDSAKNTVYLQMNSLKPEDSAGYYCTAVGRSDLFEYWGQGTQVTVSS | high polyreactivity
10 | QVQLVESGGGLVQAGGSLRLICAASGIIFTYNAMGWYRQAPGKERELVAAINGGSSTNYADSVKGRFTISRDNAKNTVYLQMNSLKPEDTAVYDCAADVIPDGVKKPRMYYWGQGTQVTVSS | low polyreactivity
11 | QFQLVESGGGLVQAGGSLRLSCAASGSTFIYYAMGWYRQAPGKDRELVAAISGCGASTYYADSVKGGFTISRDNAKNTVYLQMNSLKPEDTAVYYCHFYRWRGYDYWGQGTQVTVSS | high polyreactivity
12 | QVQLVESGGGLVQAGGSLRLSCAASGYTFYWNVMGWYRQAPGKERELVAVIDWSGGSTHYADSVKGRFTISRDNAKNTVYLQMNSLKPEDTAVYYCAAVDIRLEWDYWFQPTYDYWGQGTQVTVSS | low polyreactivity
13 | QVQLVESGGGLVQAGGSLRLSCAASGSIFYHNAMGWYRQAPGKERELVAAITWSGSTTYYADSVKGRFTISRDNAKNTVYLQMNSLKPEDTAVYYCNGGYRHGHYDYWGQGTQVTVSS | low polyreactivity
14 | QVQLVESVGGLVQAGGSLRLSCAASGRILYLNVMGWYRQAPGKERELVASITVSGGITYYADSVKGRFTISRDNAKNTVYLQMNSLKPEDTAVYYCAVDAYPPFFYFTSVWFSYDYWGQGTQVTVSS | low polyreactivity
15 | QVHLVESGGGLVQAGGSLRLSCAASGSTFSIYAMGWYRQAPGKERELVAAINSGGDTNYADSVKGRFTISRDNAKNTVYLQMNSLKPEDTAVYYCAKQVYTSRRSRGRYGFGYWGQGTQVTVSS | high polyreactivity
16 | QVQLVESGGGLVQAGGSLRFSCAASGTFVPYAMGWYRQAPGKEMELVARITWRGGSTYYADSVKGRFTISRDNAKNTVYLQMNSLKPEDTAVYYCATVSDNRYYYWGQGTQVTVSS | low polyreactivity
17 | QVQLVESGGGLVKAGGSLRISCAASGSIFGPNGKGLYRQAPGKERELVSAISWNGGSTYYADSVKGRFTISRDNAKNTVYLQMNSLKPEDTAVYYCNAVQYYEFDYWGHGTQVTVSS | low polyreactivity
18 | QVQLVESGGGLVQAGGSHRLSCAASGGTFNSNAMGWYRQAPGKERELVASITWRGGTYYADSVKGRFTISRDNAKNTVYLQMNSLKPEDTAVYYCAARGTIPGIHWIYYYWGQGTQVTVSS | high polyreactivity
19 | QVQLVESGGGLVQAGGSLRLSCAASGRTFNRYAMGWYRQAPGKERELVAVITGSGGAGTYYADSVKGRFTISRDNAKNTVYLQMNSLKPEDTAVYYCNAGGGFYGSTVEHDYWGQGTQVTVSS | low polyreactivity
20 | QVQLVESGGGLVQAGGSLRLSCAASGSIFGPNSMGWYRQAPGKERELVAAISWTGGRTYYADSVKGRFTISRDNAKNTVYLQMNSLKPEDTAVYYCAVKGHPWGQGTQVTVSS | low polyreactivity
21 | QVQLVESGGGLVQAGGSLRLSCAASGSTFTIYAMGWYRQAPGTERELVATIRAGGGRTSYADSVKGRFTISRDNAKNTVYLQMNSLKPEDTAVYYCAVYVRPTRYGYWGQGTQVTVSS | high polyreactivity
22 | QVQLVESGGGLVQAGGSLRLSCAASGSTFTGNAMGWYRQAPGKERELVASIRSGATTYYADSVKGRFTISRDNAKNTVYLQMNSLKPEDTAVYYCAKRYLGRRGDVYYWGQGTQVTVSS | high polyreactivity

Row | Sequence | polyreactivity (PSR sort gate)
23 | QVQLVESGGGLVQAGGSLRLSCAASGSTFSSYTMGWYRQAPGKERELVATINSRGDNTYYADSVKGRFTISRDNAKNTVYLQMNSLKPEDTAVYYCAARSRRHDFDYWGQGTQVTVSS | high polyreactivity
24 | QVQLVESGGGLVQAGGSLRLSCAASGSTFFYYAMGWYRQAPGKERELVAAITSSGGRTYYADSVKGRFTISRDNAKITVYLQMNSLKPEDTAVYYCAARDYRQSRYEYWGQGTQVTVSS | high polyreactivity
25 | QVQLVESGGGLVQAGGSLRLSCAASGFIFNWNTMGWYRQAPGKERELVATMTGSGGSTYADSVKGRFTISRDNAKNTVYLQMNSLKPEDTAVYYCAATRRSFHKYDYWGQGTQVTVSS | low polyreactivity
26 | QVQLVESGGGLVQAGGSLRLSCAASGRTFVYYAMGWYRQAPGKERELVATITRGGRTNYADSVKGRFTISRDNAKNTVYLQMNSLKPEDTAVYYCNARYSWWRSRVGSSHRPDGYWGQGTQVTVSS | high polyreactivity
27 | QVQLVESGGGLVQAGGSLRLSCAASGIIFYGYAMGWYRQAPGKERELVAGISSGGSTYYADSVKGRFTISRDNAKNTVYLQMNSLKPVDTAVSYCNADGGYSYESTDHYGYDYWGQGTQVTVSS | low polyreactivity
28 | QVQLVESGGGLVQAGGSLRLSCAASGRIFAYYVMGWYRQAPGKERELVAAITWSGTSTYYADSVKGRFTISRDNAKNTVYLQMNSLKPEDTAVYYCNAVWSRSTRGYDYWGQGTQVSVSS | high polyreactivity
29 | QVQLVESGGGLVQAGGSLRLSCAASGSSFYPYAMGWYRQAPGKERELVAAISRRGGSTYYADSVKGRFTISRDNAKNTVYLQMNSLKPVDTEVYYCNVVTDSPYPVDYWGQGTQVTVSS | high polyreactivity
30 | QVQLVESGGGLVQAGGSLRLSCAASGFTFDYYAMGWYRQAPGKERELVAAITSGSITYYADSVKGRFTISRDNAKNTVYLQMNSLKPEDTAVYYCARYGYRRVGSRWAEFDYWGQGTQVTVSS | high polyreactivity
31 | QVQLVESGGGLVQAGGSLRLSCAASGRIFQPNAMGWYRQATGNERELVAAISSSGGRTYYADSVKGRFTISRDNAKNTVYLQMNSLKPEDTAVYYCNAGGYRYRSYDYWGQGNQVTVSS | high polyreactivity
32 | QVQLVESGGGLVQAGGSLRLSCAASGSTFGGNAMGWYRQAPGKERELVAAITVGGDSTYYADSVKGRFTISRDNAKNTVYLQMNSLKPEDTAVYYCAARHYWWYDYWGQGTQVTVSS | low polyreactivity
33 | QVQLVESGGGLVQAGGSLRLSCAASGSILSTYSMGCYRQAPGKERELVASISSNAGSTYYADSVKGRFTISRDNAKNTVYLQMNSLKPEDTAVYYCNKVYGGGTYDYWGQGTQVTVSS | low polyreactivity
34 | QVQLVESGGGLVQAGGSLRLTCAASGRTFTTYAMGWYRQAPGKERELFAAISGSGGSTYYADSVKGRFTISRDNAKNTVYLQMNSLKPEGTAVYYCATAYYYHGGYYYPYDDYWGQGTQVTVSS | low polyreactivity
35 | QVQLVESGGGLVQAGGSLRLSCAASGSIFYRNAMGGYRQAPGKERELVAAIAGTGGSTYYADSVKGRFTISRDNAKNTVYLQMNSLKPEDTAVYYCASGVTYRHDYWRQGTQVTVSS | high polyreactivity
36 | QVQLVESRGGLVQAGGSLRLSCAASGSTRGSNAMGRYRQAPGKEMELVAAITWSGGTTYYADSVKGRFTISRDNAKNTVYLQMHSLKPEDTSVYYCATGQSVIYRYEYWGQGTQVTVSS | low polyreactivity
37 | QVQLEESGGGLDQAGGSLRLSCAASGRTLATYAMGWYRQAPGKERELVAAISSSGTRTYYADSVKGRFTISRDNAKNTVYFQMNSLNPEDTAVYYCNAGPGYDYWGQGTQLTVSS | high polyreactivity
38 | EEELVESGGGLVQAGGSLRLSCAASGSIFVVNAMGWYRQAPGKERELVAAISRGGITNYADSVKGRFTISRDNAKNTVYLQMNSLKPEDTAVYYCNARGSRWVKPERDYWGQGTQVTVSS | low polyreactivity
39 | QVQLVEAGGGLVQAGGSLRLSCAASGSTFRRYAMGWYRQAPGKERVLVAAITTRGGSTYYADSVKGRFTISRDNAKNTVYLQMNSLKPEDTAVYYCARDYSTYLRTAGDYWGQGTQVTVSS | low polyreactivity
40 | QVQLVESGGGLVQAGGSLRLSCAASGIIFTWYAMGWYRQAPGKERELVAAISGSGDITYYADSVKGRFTISRDNAKNTVFLQMNSLKPEDTAVYYCAADPWTYWEDYDYWGQGTQVTVSS | low polyreactivity
41 | QVQLVESGGGLVQAGGSLRLSCAASGRTFTYYAIGWYRQAPGKERELVADINRSGGDTYYADSVKGRFTISRDNAKNTVYLQMNSLKPEDTAVYYSAADDWGAQHRYDYWGQGTQVTVSS | low polyreactivity
42 | QVQLVESGGGLVQAGGSLRLSSGASGRIFAVYAMGWYRQAPGKERELVAAISYIGGSTYYADSVKGRFTISRDNAKNSVYLQMNSLKPEDTAVYYCATDSHDDTGAYDYWGQGTQVTVSS | low polyreactivity
43 | QVQLVESGGGLVQAGGSLRLSCAASGITFYSYAMGWYRQAPGKERELVAAISSSGTTYYADSVKGRFTISRDNAKNTVYLQMNSLKPEDTAVYYCAVDSYYKYDYWGQGTQVTVSS | low polyreactivity
